Reference: patent US10766952B2, “Methods for reducing migraine frequency in a subject in need thereof” (Beth Israel Deaconess Medical Center, Inc., priority 2017, dated 2020)

B1: M26: G1 variant: L1 R28N; H2 A57G; HC-FW3 L99T,A100V (antibody, V domains shown)
VH: EVQLVESGGGLVQPGGSLRLSCAASGFTFSNYWISWVRQAPGKGLEWVAEIRSESDGSATHYAEAVKGRFTISRDNAKNSLYLQMNSLRAEDTAVYYCTVYFDYGLAIQNYWGQGTLVTVSS
VL: EIVLTQSPATLSLSPGERATLSCKASKNVTTYVSWYQQKPGQAPRLLIYGASNRYLGIPARFSGSGSGTDFTLTISSLEPEDFAVYYCSQSYNYPYTFGQGTKLEIK
B2: M36: G1 variant: L1 R28N,T30R; HC-FW3 L99T,A100V (antibody, V domains shown)
VH: EVQLVESGGGLVQPGGSLRLSCAASGFTFSNYWISWVRQAPGKGLEWVAEIRSESDASATHYAEAVKGRFTISRDNAKNSLYLQMNSLRAEDTAVYYCTVYFDYGLAIQNYWGQGTLVTVSS
VL: EIVLTQSPATLSLSPGERATLSCKASKNVRTYVSWYQQKPGQAPRLLIYGASNRYLGIPARFSGSGSGTDFTLTISSLEPEDFAVYYCSQSYNYPYTFGQGTKLEIK
B3: M31: G1 variant: L1 R28N,T30G; H2 E54K,A57G; HC-FW3 L99T,A100V (antibody, V domains shown)
VH: EVQLVESGGGLVQPGGSLRLSCAASGFTFSNYWISWVRQAPGKGLEWVAEIRSKSDGSATHYAEAVKGRFTISRDNAKNSLYLQMNSLRAEDTAVYYCTVYFDYGLAIQNYWGQGTLVTVSS
VL: EIVLTQSPATLSLSPGERATLSCKASKNVGTYVSWYQQKPGQAPRLLIYGASNRYLGIPARFSGSGSGTDFTLTISSLEPEDFAVYYCSQSYNYPYTFGQGTKLEIK
B4: M32: G1 variant: L1 R28N,T30G; H2 E54K,A57H; HC-FW3 L99T,A100V (antibody, V domains shown)
VH: EVQLVESGGGLVQPGGSLRLSCAASGFTFSNYWISWVRQAPGKGLEWVAEIRSKSDHSATHYAEAVKGRFTISRDNAKNSLYLQMNSLRAEDTAVYYCTVYFDYGLAIQNYWGQGTLVTVSS
VL: EIVLTQSPATLSLSPGERATLSCKASKNVGTYVSWYQQKPGQAPRLLIYGASNRYLGIPARFSGSGSGTDFTLTISSLEPEDFAVYYCSQSYNYPYTFGQGTKLEIK
B5: M38: G1 variant: L1 R28N,T30W; HC-FW3 L99T,A100V (antibody, V domains shown)
VH: EVQLVESGGGLVQPGGSLRLSCAASGFTFSNYWISWVRQAPGKGLEWVAEIRSESDASATHYAEAVKGRFTISRDNAKNSLYLQMNSLRAEDTAVYYCTVYFDYGLAIQNYWGQGTLVTVSS
VL: EIVLTQSPATLSLSPGERATLSCKASKNVWTYVSWYQQKPGQAPRLLIYGASNRYLGIPARFSGSGSGTDFTLTISSLEPEDFAVYYCSQSYNYPYTFGQGTKLEIK
B6: M30: G1 variant: L1 R28N,T30G; H2 E54K,A57E; HC-FW3 L99T,A100V (antibody, V domains shown)
VH: EVQLVESGGGLVQPGGSLRLSCAASGFTFSNYWISWVRQAPGKGLEWVAEIRSKSDESATHYAEAVKGRFTISRDNAKNSLYLQMNSLRAEDTAVYYCTVYFDYGLAIQNYWGQGTLVTVSS
VL: EIVLTQSPATLSLSPGERATLSCKASKNVGTYVSWYQQKPGQAPRLLIYGASNRYLGIPARFSGSGSGTDFTLTISSLEPEDFAVYYCSQSYNYPYTFGQGTKLEIK
B7: M29: G1 variant: L1 R28N,T30G; HC-FW3 L99T,A100V (antibody, V domains shown)
VH: EVQLVESGGGLVQPGGSLRLSCAASGFTFSNYWISWVRQAPGKGLEWVAEIRSESDASATHYAEAVKGRFTISRDNAKNSLYLQMNSLRAEDTAVYYCTVYFDYGLAIQNYWGQGTLVTVSS
VL: EIVLTQSPATLSLSPGERATLSCKASKNVGTYVSWYQQKPGQAPRLLIYGASNRYLGIPARFSGSGSGTDFTLTISSLEPEDFAVYYCSQSYNYPYTFGQGTKLEIK
B8: M34: G1 variant: L1 R28N,T30G; H2 E54K,A57N,S58T; HC-FW3 L99T,A100V (antibody, V domains shown)
VH: EVQLVESGGGLVQPGGSLRLSCAASGFTFSNYWISWVRQAPGKGLEWVAEIRSKSDNTATHYAEAVKGRFTISRDNAKNSLYLQMNSLRAEDTAVYYCTVYFDYGLAIQNYWGQGTLVTVSS
VL: EIVLTQSPATLSLSPGERATLSCKASKNVGTYVSWYQQKPGQAPRLLIYGASNRYLGIPARFSGSGSGTDFTLTISSLEPEDFAVYYCSQSYNYPYTFGQGTKLEIK
B9: M33: G1 variant: L1 R28N,T30G; H2 E54K,A57N,S58G; HC-FW3 L99T,A100V (antibody, V domains shown)
VH: EVQLVESGGGLVQPGGSLRLSCAASGFTFSNYWISWVRQAPGKGLEWVAEIRSKSDNGATHYAEAVKGRFTISRDNAKNSLYLQMNSLRAEDTAVYYCTVYFDYGLAIQNYWGQGTLVTVSS
VL: EIVLTQSPATLSLSPGERATLSCKASKNVGTYVSWYQQKPGQAPRLLIYGASNRYLGIPARFSGSGSGTDFTLTISSLEPEDFAVYYCSQSYNYPYTFGQGTKLEIK
B10: M37: G1 variant: L1 R28N,T30S; H2 A57G; HC-FW3 L99T,A100V (antibody, V domains shown)
VH: EVQLVESGGGLVQPGGSLRLSCAASGFTFSNYWISWVRQAPGKGLEWVAEIRSESDGSATHYAEAVKGRFTISRDNAKNSLYLQMNSLRAEDTAVYYCTVYFDYGLAIQNYWGQGTLVTVSS
VL: EIVLTQSPATLSLSPGERATLSCKASKNVSTYVSWYQQKPGQAPRLLIYGASNRYLGIPARFSGSGSGTDFTLTISSLEPEDFAVYYCSQSYNYPYTFGQGTKLEIK
B11: M27: G1 variant: L1 R28N,T30A; HC-FW3 L99T,A100V (antibody, V domains shown)
VH: EVQLVESGGGLVQPGGSLRLSCAASGFTFSNYWISWVRQAPGKGLEWVAEIRSESDASATHYAEAVKGRFTISRDNAKNSLYLQMNSLRAEDTAVYYCTVYFDYGLAIQNYWGQGTLVTVSS
VL: EIVLTQSPATLSLSPGERATLSCKASKNVATYVSWYQQKPGQAPRLLIYGASNRYLGIPARFSGSGSGTDFTLTISSLEPEDFAVYYCSQSYNYPYTFGQGTKLEIK
B12: M35: G1 variant: L1 R28N,T30G; H2 E54K,A57S; HC-FW3 L99T,A100V (antibody, V domains shown)
VH: EVQLVESGGGLVQPGGSLRLSCAASGFTFSNYWISWVRQAPGKGLEWVAEIRSKSDSSATHYAEAVKGRFTISRDNAKNSLYLQMNSLRAEDTAVYYCTVYFDYGLAIQNYWGQGTLVTVSS
VL: EIVLTQSPATLSLSPGERATLSCKASKNVGTYVSWYQQKPGQAPRLLIYGASNRYLGIPARFSGSGSGTDFTLTISSLEPEDFAVYYCSQSYNYPYTFGQGTKLEIK
B13: M39: G1 variant: L1 R28N; L2 G50A,L56T; H2 A57N,S58Y; HC-FW3 L99T,A100V (antibody, V domains shown)
VH: EVQLVESGGGLVQPGGSLRLSCAASGFTFSNYWISWVRQAPGKGLEWVAEIRSESDNYATHYAEAVKGRFTISRDNAKNSLYLQMNSLRAEDTAVYYCTVYFDYGLAIQNYWGQGTLVTVSS
VL: EIVLTQSPATLSLSPGERATLSCKASKNVTTYVSWYQQKPGQAPRLLIYAASNRYTGIPARFSGSGSGTDFTLTISSLEPEDFAVYYCSQSYNYPYTFGQGTKLEIK
B14: M28: G1 variant: L1 R28N,T30D; H2 E54R,A57N; HC-FW3 L99T,A100V (antibody, V domains shown)
VH: EVQLVESGGGLVQPGGSLRLSCAASGFTFSNYWISWVRQAPGKGLEWVAEIRSRSDNSATHYAEAVKGRFTISRDNAKNSLYLQMNSLRAEDTAVYYCTVYFDYGLAIQNYWGQGTLVTVSS
VL: EIVLTQSPATLSLSPGERATLSCKASKNVDTYVSWYQQKPGQAPRLLIYGASNRYLGIPARFSGSGSGTDFTLTISSLEPEDFAVYYCSQSYNYPYTFGQGTKLEIK

Assays:
rat α-CGRP = biological target: T1, rat α-CGRP (Rattus norvegicus, UniProt P01256); test: Biacore affinity of antibody G1 Fab and variants to rat α-CGRP; type: binding; settings: 37° C., Fab, screening mode unless underlined
T1 construct: rat α (1-37); host or cells: synthetic peptide
T1 sequence (P01256 83-119 limits assumed): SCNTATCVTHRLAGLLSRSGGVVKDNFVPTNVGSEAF
Experimental: (§1) Biacore assay for affinity determination. […] All Biacore assays were conducted in HBS-EP running buffer (10 mM HEPES pH 7.4, 150 mM NaCl, 3 mM EDTA, 0.005% v/v polysorbate P20). CGRP surfaces were prepared by diluting the N-biotinylated CGRP to a concentration of less than 0.001 mg/mL into HBS-EP buffer and injecting it across the SA sensor chip using variable contact times. Low capacity surfaces, corresponding to capture levels <50 response units (RU) were used for high-resolution kinetic studies, whereas high capacity surfaces (about 800 RU of captured CGRP) were used for concentration studies, screening, and solution affinity determinations. […] Samples were typically injected for lminute at 100 μL/min and dissociation times of at least 10 minutes were allowed. After each binding cycle, surfaces were regenerated with 25 mM NaOH in 25% v/v ethanol, which was tolerated over hundreds of cycles. An entire titration series (typically generated in duplicate) was fit globally to a 1:1 Langmuir binding model using the BlAevaluation program. This returned a unique pair of association and dissociation kinetic rate constants (respectively, kon and koff) for each binding interaction, whose ratio gave the equilibrium dissociation constant (KD=koff/[…]).
(§2) High-resolution analysis of binding interactions with extremely slow offrates. […] The protocol described above was used with the following modifications. The association rate constant (kon) was determined by injecting a 2-fold titration series (in duplicate) spanning 550 nM-1 nM for 30 seconds at 100 μL/min and allowing only a 30 second dissociation phase. The dissociation rate constant (koff) was determined by injecting three concentrations (high, medium, and low) of the same titration series in duplicate for 30 seconds and allowing a 2-hour dissociation phase. The affinity (KD) of each interaction was obtained by combining the kon and koff values obtained in both types of experiments, as shown in Table 4.
(§3) The binding affinities of Fab fragments were determined by Biacore by flowing them across CGRPs on a SA chip.

human α-CGRP = biological target: T2, human α-CGRP (Homo sapiens, UniProt P06881); test: Biacore affinity of antibody G1 Fab and variants to human α-CGRP; type: binding; settings: 37° C., Fab, screening mode unless underlined
T2 construct: 1-37 (WT); purchased; host or cells: synthetic peptide
T2 sequence (P06881 83-119 limits assumed): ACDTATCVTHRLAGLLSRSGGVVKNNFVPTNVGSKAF
Experimental: as §1, §2, §3

Molecule | α-rat koff (rat α-CGRP) | α-human koff (human α-CGRP)
B1 | 0.000924 s⁻¹ | 0.000148 s⁻¹
B2 | 0.00479 s⁻¹ | 0.000239 s⁻¹
B3 | 0.00361 s⁻¹ | 0.000347 s⁻¹
B4 | 0.00296 s⁻¹ | 0.000271 s⁻¹
B5 | 0.00511 s⁻¹ | 0.000218 s⁻¹
B6 | 0.00638 s⁻¹ | 0.00059 s⁻¹
B7 | 0.00359 s⁻¹ | 0.00038 s⁻¹
B8 | 0.00217 s⁻¹ | 0.000646 s⁻¹
B9 | 0.00922 s⁻¹ | 0.00075 s⁻¹
B10 | 0.00145 s⁻¹ | 0.000226 s⁻¹
B11 | 0.00341 s⁻¹ | 0.000357 s⁻¹
B12 | 0.00399 s⁻¹ | 0.000339 s⁻¹
B13 | 0.00995 s⁻¹ | 0.000425 s⁻¹
B14 | 0.00125 s⁻¹ | 9.96e-05 s⁻¹
